The text below walks through data of paper PMC4979867, “Reconstitution of the membrane protein OmpF into biomimetic block copolymer–phospholipid hybrid membranes” (Beilstein Journal of Nanotechnology, 2016).

This series concerns the molecule itself. As to the kind of experiment: SDS-PAGE of the unboiled sample; purified OmpF in 1% octyl-POE, sample not boiled before SDS-PAGE.

B1: outer membrane protein OmpF from Escherichia coli (natural protein, UniProt P02931 23-362, looked up)
chain: AEIYNKDGNKVDLYGKAVGLHYFSKGNGENSYGGNGDMTYARLGFKGETQINSDLTGYGQWEYNFQGNNSEGADAQTGNKTRLAFAGLKYADVGSFDYGRNYGVVYDALGYTDMLPEFGGDTAYSDDFFVGRVGGVATYRNSNFFGLVDGLNFAVQYLGKNERDTARRSNGDGVGGSISYEYEGFGIVGAYGAADRTNLQEAQPLGNGKKAEQWATGLKYDANNIYLAANYGETRNATPITNKFTNTSGFANKTQDVLLVAQYQFDFGLRPSIAYTKSKAKDVEGIGDVDLVNYFEVGATYYFNKNMSTYVDYIINQIDSDNKLGVGSDDTVAVGIVYQF
notes: Outer membrane porin OmpF, Escherichia coli, native protein from strain B^E BL21(DE3)omp6 (lacks LamB and OmpC); no residues or identifiers printed; The protein here comes from an E. coli B strain, whose OmpF may differ from it at a few positions; also called native OmpF protein
For the protein B1, the “stoichiometry N” value is 3.

A word on the stoichiometry N: it is a count of units in the complex or per binding partner.
